Assay results taken from patent US20020160482A1, “Methods for protein purification” (priority 2001, published 2002).

Assays:
[1] = biological target: T1, purified SSAO protein (recombinant human SSAO) (Homo sapiens, UniProt Q16853); assay: Semicarbazide inhibition of benzylamine oxidase activity (spectrophotometric amine oxidase assay); format: biochemical; details: in the presence of 0.1 mM semicarbazide, read-out: benzylamine oxidase activity inhibited
T1 construct: residues 29-763 of the human SSAO protein cloned from human aorta cDNA; mutated S. japonicum GST (Cys85/138/178 to Ser) with SQSQ spacer and 3C protease site EALFQG (N, cleaved yes); murine IgG1 heavy chain signal peptide (mutated), followed by an 18 amino acid spacer (N, cleaved yes); made in house; host or cells: HEK293 cells stably transfected with pMB887, protein secreted into the medium
T1 sequence (Q16853 29-763): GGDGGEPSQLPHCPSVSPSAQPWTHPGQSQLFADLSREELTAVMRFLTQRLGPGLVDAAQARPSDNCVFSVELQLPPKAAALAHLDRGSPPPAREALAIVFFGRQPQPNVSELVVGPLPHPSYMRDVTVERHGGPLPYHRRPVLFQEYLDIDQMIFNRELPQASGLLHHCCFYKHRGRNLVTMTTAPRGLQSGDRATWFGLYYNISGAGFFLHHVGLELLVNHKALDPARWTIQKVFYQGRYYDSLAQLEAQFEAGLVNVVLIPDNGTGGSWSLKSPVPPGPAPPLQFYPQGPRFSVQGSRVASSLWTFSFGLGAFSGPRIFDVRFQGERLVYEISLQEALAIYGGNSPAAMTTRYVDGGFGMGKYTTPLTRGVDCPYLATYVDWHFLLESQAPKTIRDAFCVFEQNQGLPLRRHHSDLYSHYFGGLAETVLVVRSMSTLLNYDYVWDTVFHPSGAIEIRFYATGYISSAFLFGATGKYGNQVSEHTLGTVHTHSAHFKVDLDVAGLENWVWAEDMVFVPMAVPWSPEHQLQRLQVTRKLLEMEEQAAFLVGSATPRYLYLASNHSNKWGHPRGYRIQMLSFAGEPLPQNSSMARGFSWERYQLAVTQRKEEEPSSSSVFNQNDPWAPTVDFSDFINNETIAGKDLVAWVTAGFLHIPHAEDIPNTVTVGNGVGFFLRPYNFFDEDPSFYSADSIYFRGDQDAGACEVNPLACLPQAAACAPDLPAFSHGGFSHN
Experimental: A spectrophotometric assay for monoamine oxidases described by Holt and coworkers (Holt et al., 1997) was used to determine amine oxidase activity in samples from the different purification steps. The assay was performed in 96-well microtiter plates incubated at 37° C. in a SPECTRAmax 250 microplate spectrophotometer (Molecular Devices, Sunnyvale, Calif.). The reagent mix containing 1 mM vanillic acid (Sigma, St. Louis, Mo.), 500 μM 4-aminoantipyrine (Sigma), and 4U ml^−1 peroxidase (type VI from horseradish, Sigma) in 0.2 M potassium phosphate buffer (pH 7.6) was prepared on the same day assays were performed and kept at 5° C. until used. Reactions were started by mixing 50 μl sample, 50 μl reagent mix and 200 μl potassium phosphate buffer with or without 750 μM benzylamine hydrochloride (Sigma) and were performed in triplicate. In order to obtain blank reference values, wells were analyzed with buffer added in place of sample. Absorbance changes were followed at 490 nm for 10-40 minutes. Standard curves were prepared with dilutions of a stock solution of H2O2 in potassium phosphate buffer ranging from 10 nmol/well to 120 nmol/well. When inhibition experiments were carried out, the samples were incubated in 300 μM semicarbazide at 37° C. for 30 minutes, before addition of the benzylamine solution. […]

[2] = Spectrophotometric amine oxidase assay: specific benzylamine oxidase activity of purified proteins; format: biochemical, human
Experimental: A spectrophotometric assay for monoamine oxidases described by Holt and coworkers (Holt et al., 1997) was used to determine amine oxidase activity in samples from the different purification steps. The assay was performed in 96-well microtiter plates incubated at 37° C. in a SPECTRAmax 250 microplate spectrophotometer (Molecular Devices, Sunnyvale, Calif.). The reagent mix containing 1 mM vanillic acid (Sigma, St. Louis, Mo.), 500 μM 4-aminoantipyrine (Sigma), and 4U ml^−1 peroxidase (type VI from horseradish, Sigma) in 0.2 M potassium phosphate buffer (pH 7.6) was prepared on the same day assays were performed and kept at 5° C. until used. Reactions were started by mixing 50 μl sample, 50 μl reagent mix and 200 μl potassium phosphate buffer with or without 750 μM benzylamine hydrochloride (Sigma) and were performed in triplicate. In order to obtain blank reference values, wells were analyzed with buffer added in place of sample. Absorbance changes were followed at 490 nm for 10-40 minutes. Standard curves were prepared with dilutions of a stock solution of H2O2 in potassium phosphate buffer ranging from 10 nmol/well to 120 nmol/well. When inhibition experiments were carried out, the samples were incubated in 300 μM semicarbazide at 37° C. for 30 minutes, before addition of the benzylamine solution.

NNC(N)=O [semicarbazide]
inhibition at 100 µM [1]: > 95%

B1: SSAO protein: purified soluble recombinant human SSAO (residues 29-763) after removal of the GST fusion partner (protein, listed as Homo sapiens)
chain: GGDGGEPSQLPHCPSVSPSAQPWTHPGQSQLFADLSREELTAVMRFLTQRLGPGLVDAAQARPSDNCVFSVELQLPPKAAALAHLDRGSPPPAREALAIVFFGRQPQPNVSELVVGPLPHPSYMRDVTVERHGGPLPYHRRPVLFQEYLDIDQMIFNRELPQASGLLHHCCFYKHRGRNLVTMTTAPRGLQSGDRATWFGLYYNISGAGFFLHHVGLELLVNHKALDPARWTIQKVFYQGRYYDSLAQLEAQFEAGLVNVVLIPDNGTGGSWSLKSPVPPGPAPPLQFYPQGPRFSVQGSRVASSLWTFSFGLGAFSGPRIFDVRFQGERLVYEISLQEALAIYGGNSPAAMTTRYVDGGFGMGKYTTPLTRGVDCPYLATYVDWHFLLESQAPKTIRDAFCVFEQNQGLPLRRHHSDLYSHYFGGLAETVLVVRSMSTLLNYDYVWDTVFHPSGAIEIRFYATGYISSAFLFGATGKYGNQVSEHTLGTVHTHSAHFKVDLDVAGLENWVWAEDMVFVPMAVPWSPEHQLQRLQVTRKLLEMEEQAAFLVGSATPRYLYLASNHSNKWGHPRGYRIQMLSFAGEPLPQNSSMARGFSWERYQLAVTQRKEEEPSSSSVFNQNDPWAPTVDFSDFINNETIAGKDLVAWVTAGFLHIPHAEDIPNTVTVGNGVGFFLRPYNFFDEDPSFYSADSIYFRGDQDAGACEVNPLACLPQAAACAPDLPAFSHGGFSHN
specific activity ([2]; after cleavage, flow-through of second glutathione-Sepharose step (cleavage buffer with DTT)): 522 nmol/min/mg | specific activity ([2]; after removal of GST fusion partner and diafiltration (final product)): 809 nmol/min/mg | specific activity ([2]; per purification step, nmol of H2O2 produced per minute using 0.5 mM benzylamine as substrate, listed as Diafiltrate): 809 nmol/min/mg | specific activity ([2]; per purification step, nmol of H2O2 produced per minute using 0.5 mM benzylamine as substrate, listed as GSH-affinity step-2 (flow-through)): 522 nmol/min/mg
